First the molecules themselves.
B1: Protein MKS1 (Arabidopsis thaliana (Mouse-ear cress)), Q8LGD5 (parent)
chain: MDPSEYFAGGNPSDQQNQKRQLQICGPRPSPLSVHKDSHKIKKPPKHPAPPPNRDQPPPYIPREPVVIYAVSPKVVHATASEFMNVVQRLTGISSGVFLESGGGGDVSPAARLASTENASPRGGKEPAARDETVEINTAMEEAAEFGGYAPGILSPSPALLPTASTGIFSPMYHQGGMFSPAIPLGLFSPAGFMSPFRSPGFTSLVASPTFADFFSHIWDQD
partner: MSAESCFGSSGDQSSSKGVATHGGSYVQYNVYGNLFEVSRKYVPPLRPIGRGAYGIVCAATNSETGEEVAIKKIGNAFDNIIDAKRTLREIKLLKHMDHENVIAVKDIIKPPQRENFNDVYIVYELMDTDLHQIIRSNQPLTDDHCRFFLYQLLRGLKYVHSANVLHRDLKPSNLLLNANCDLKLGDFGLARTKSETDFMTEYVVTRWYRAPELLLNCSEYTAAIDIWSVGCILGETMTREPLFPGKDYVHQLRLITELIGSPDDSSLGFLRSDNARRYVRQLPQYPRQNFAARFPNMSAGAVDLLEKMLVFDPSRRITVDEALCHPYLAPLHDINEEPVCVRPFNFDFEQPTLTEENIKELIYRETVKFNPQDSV

Variants of B1 are the subject of the assay. As to conditions: with mpk4_arath MPK4, Q39024.
As to S38A, the “effect of a mutation on the interaction” value is reported as “disrupting interaction”.

Turning to K40A, the “effect of a mutation on the interaction” value was “disrupting interaction”.

Take L32A: the “effect of a mutation on the interaction” value is “disrupting interaction”.

On to R28A, for which the “effect of a mutation on the interaction” value is listed as “disrupting interaction”. With K19A, the “effect of a mutation on the interaction” value was “disrupting interaction”. Regarding P29A, the “effect of a mutation on the interaction” value was “disrupting interaction”.

The record behind these values is IntAct's records for PubMed 21203436.
